The target in assay [1] is H1 HA A/Solomon Islands/03/2006 (H1N1), recombinant soluble trimer (influenza A virus).
The target in assay [2] is H1 HA A/Texas/36/1991 (H1N1), recombinant soluble trimer (influenza A virus).
The target in assay [3] is H3 HA A/Texas/50/2012, recombinant soluble trimer (influenza A virus).

B1: rFluA-20 heavy chain mutant Y34A (antibody, V domains shown)
VH: QVQLQESGPGLVKPSETLSLTCSVSGVSVTSDIAYWTWIRQPPGKGLEWIGYIFYNGDTNYNPSLKSRVTMSIDTSKNEFSLRLTSVTAADTAVYFCARGTEDLGYCSSGSCPNHWGQGTLVTVSS
VL: DIQMTQSPSSLSASIGDRVTITCRPSQNIRSFLNWFQHKPGKAPKLLIYAASNLQSGVPSRFSGSGSGTEFTLTIRSLQPEDFATYYCQQSYNTPPTFGQGTKVEIK
Turning to B1, the EC50 (as a rule, the concentration needed to bring the measured effect to its halfway point) in assay [1] amounted to 0.04 µg/mL; in assay [2] it was 0.05 µg/mL; in assay [3], 0.16 µg/mL.

B2: rFluA-20 heavy chain mutant E97A (antibody, V domains shown)
VH: QVQLQESGPGLVKPSETLSLTCSVSGVSVTSDIYYWTWIRQPPGKGLEWIGYIFYNGDTNYNPSLKSRVTMSIDTSKNEFSLRLTSVTAADTAVYFCARGTADLGYCSSGSCPNHWGQGTLVTVSS
VL: DIQMTQSPSSLSASIGDRVTITCRPSQNIRSFLNWFQHKPGKAPKLLIYAASNLQSGVPSRFSGSGSGTEFTLTIRSLQPEDFATYYCQQSYNTPPTFGQGTKVEIK
For B2, the concentration giving a half-maximal response (EC50) in assay [1] came out at 0.07 µg/mL; in assay [2], 0.05 µg/mL; in assay [3], 0.18 µg/mL.

B3: rFluA-20 heavy chain mutant T96A (antibody, V domains shown)
VH: QVQLQESGPGLVKPSETLSLTCSVSGVSVTSDIYYWTWIRQPPGKGLEWIGYIFYNGDTNYNPSLKSRVTMSIDTSKNEFSLRLTSVTAADTAVYFCARGAEDLGYCSSGSCPNHWGQGTLVTVSS
VL: DIQMTQSPSSLSASIGDRVTITCRPSQNIRSFLNWFQHKPGKAPKLLIYAASNLQSGVPSRFSGSGSGTEFTLTIRSLQPEDFATYYCQQSYNTPPTFGQGTKVEIK
As to B3, the EC50 in assay [1] is 0.03 µg/mL; in assay [2], 0.04 µg/mL; in assay [3], 0.07 µg/mL.

(Values after patent US20220387578A1.)
